According to the Human Domainome abundance scans (Beltran et al. 2025):

B1: Transcription elongation factor A N-terminal and central domain-containing protein, residues 30 to 77; numbered along this chain, Q8N8B7 (parent)
chain: LTELETIYVTKEHLQETDVVRAVYRVLKNCPSVALKKKAKCLLSKWKA

Variants of: B1
Assay: abundance fitness (aPCA) (normalised: wild type 0, dead -1); higher = more abundant; growth selection in yeast, the domain comes from the species named
Conditions: Homo sapiens

Abundance fitness, by site and new letter:
T10: L -0.674 | N -0.546 | S -0.121 | V -0.18
K37: P -1.02 | C -0.895 | W -0.68 | S -0.346 | G -0.578 | A -0.365
H13: T 0 | M -0.133 | G -0.232 | C -0.224 | L -0.842 | N 0.07 | Q -0.078
V33: G 0.012 | Y -0.327 | D -0.086 | T -0.146 | W -0.096
L14: P -0.049 | S 0.296 | C 0.061 | A 0.241
K45: N -0.361 | F 0.204 | I -1.01 | S -0.55 | C -0.352 | L -0.513 | V -0.918
Y8: E 0.448 | N -0.043 | L -0.233 | F -0.339 | R -0.094 | G 0.156
R21: C -0.468 | T -0.413 | V -0.904 | G -0.042 | K -0.246 | W -0.549 | F -0.914 | A -0.457
S44: Y -0.398 | R 0.021 | E -0.262 | H 0.079 | A -0.232 | P -0.891 | W -0.237 | G -0.141 | C -0.73 | I -0.695 | F -0.158
V23: P -0.833 | H -0.81 | Q -0.901 | L 0.041 | W -0.009 | F -0.021
E12: F -0.742 | N -0.34 | M -0.538 | R -0.24 | P -0.25 | G -0.598
E16: I -0.28 | N -0.187 | Q 0.285 | F 0.028 | A -0.017 | S 0.021 | G -0.008 | R 0.123 | P 0.009 | K -0.152
A22: P -0.143 | L -0.119 | M -0.053 | G -0.046 | Y -0.074 | F -0.308 | S -0.007
K47: R -0.431 | Q -0.46 | N -0.625 | P -0.334 | W 0.025 | H -0.268 | M -0.252 | V 0.019
T2: Q -0.177 | N 0.036 | A -0.385 | Y -0.078 | G -0.078 | K 0.11 | D 0.107 | M -0.461 | L -0.389 | C -0.501 | E 0.27
K28: S -0.368 | G -0.402 | E -0.679 | Q -0.734 | D -0.789 | R -0.033
K36: V 0.066 | C -0.225 | P -0.211 | W 0.113 | N -0.833 | S -0.609 | Y 0.049 | E -1.32
V9: C -0.172 | H 0.107 | D 0.276 | W -0.277 | T 0.087 | N 0.232 | M -0.098 | I -0.163
L35: S -0.8
T6: H -0.147 | A -0.355 | N -0.514 | D 0.094 | G -0.024 | I -0.891 | K -0.059 | C -0.262
E3: F 0.477 | L -0.07 | I -0.112 | P -0.45 | H -0.696 | Q -0.222 | T -0.464 | D -0.209 | N -0.001 | W 0.305
P31: L 0.355 | E -0.357 | I 0.371 | N -0.016 | T 0.341 | Q -0.017 | V 0.337 | Y -0.021 | S 0.263 | K 0.291 | F 0.511
T17: E -0.315 | S -0.103 | R -0.099 | C -0.103 | W -0.142
N29: K -0.029 | I -0.167 | T 0.024 | C 0 | D -0.193 | Y -0.466 | A -0.086 | L 0.004 | Q -0.259
L1: T 0.251 | C -0.162 | G 0.363 | Q 0.202 | R -0.202
K38: P -0.679 | Y -0.265 | Q -0.645 | N 0.201
L4: T 0.269 | I -0.174 | R 0.11 | P 0.279 | H 0.025 | M 0.022 | C -0.51 | K 0.272
I7: L -0.07 | V 0.006 | G 0.224 | T 0.192 | R 0.008 | S 0.147 | W -0.631
S32: F 0.211 | P 0.039 | H 0.131 | Q -0.439 | D -0.389
C41: D -0.182 | M -0.232 | R 0.167 | L 0.047 | V 0.042 | H 0.239 | I -0.202 | T -0.073 | S 0.093 | Q 0.293
L27: D -0.901 | Y -0.352 | K -0.845 | C -0.994 | R -0.848 | A -0.593 | S -0.966
R25: C -0.92 | P -0.812 | V -0.849 | N -0.091 | S -0.257
Y24: P -0.72 | V 0.11 | H -0.468 | F 0.172 | M 0.315
Q15: P 0.134 | V -0.527 | C -0.002 | S -0.208 | H -0.138 | Y -0.562 | D -0.27 | F -0.212
W46: E -1.03 | S -0.96 | P -0.765 | T -0.705 | D -1.05 | Y -0.504
C30: V 0.062 | W 0.119 | Y -0.632 | P -0.244 | A -0.338 | G 0.012 | L 0.075 | E -0.935 | M 0.035 | N -0.274
D18: W 0.172 | I -0.263 | C -0.09 | H 0.049 | A 0.098 | S 0.353 | V -0.094
L42: I -0.283 | C -0.839 | F -0.174 | Y -0.737 | W -0.026
E5: H -0.346 | Y -0.604 | D -0.186 | K -0.393 | S -0.809 | Q -0.498 | R -0.769 | V -0.446
V26: F 0.126 | C 0.15 | Y 0.491 | L -0.172 | S -0.206 | E -0.836 | N -0.152 | R 0.211 | D -0.727 | M 0.206 | G -0.095
V19: S -0.481 | F -0.362 | M 0.037 | P -0.261 | D -0.72 | A -0.022 | T -0.347 | K -0.39
A48: W -0.469 | L -1.22 | P -0.565 | H -0.331 | T 0.162 | R 0.034
A39: S -0.745 | L -0.089 | N -0.61 | H -0.553 | G -0.576 | Y -0.452 | K -0.883 | D -0.826 | V 0.096
K11: E 0.145 | A 0.095 | R -0.348 | T -0.555 | F -0.747 | C -0.337 | D -0.021 | Y -0.599 | M -0.246
A34: E -0.308 | F -0.305 | K 0.148 | V -0.489 | C 0.149 | Q -0.464 | L -0.279 | Y -0.174
V20: A 0.015 | Y -0.301 | C -0.034
L43: D -0.829 | E -0.915 | M -0.138 | G -1.12 | P -0.789 | V -0.272 | T -1.05 | A -0.787
